From paper PMC6935017 (Cell, 2018) come the findings set out here.

One may read the stoichiometry N as the number of molecules, sites or subunits per partner or assembly.

This series deals with the molecule itself. In words: crystal structure.

B1: Streptococcus thermophilus Csm2 (natural protein, Streptococcus thermophilus ND03, UniProt A0A0A7HIX1 1-121, looked up)
chain: MAILTDENYVDKAERAISLLEKDNKGNYLLTTSQIRKLLSLCSSLYDRSKERKFDELINDVSYLRVQFVYQAGREIAVKDLIEKAQILEALKEIKDRETLQRFCRYMEALVAYFKFYGGKD
Regarding B1, the “stoichiometry N” value came out at 2.

B2: Streptococcus thermophilus Csm3 (natural protein, Streptococcus thermophilus ND03)
chain: MTFAKIKFSAQIRLETGLHIGGSDAFAAIGAIDSPVIKDPITNIPIIPGSSLKGKMRTLLAKVYNEKVAEKPSDDSDILSRLFGNSKDKRFKMGRLIFRDAFLSNADELDSLGVRSYTEVKFENTIDRITAEANPRQIERAIRNSTFDFELIYEITDENENQVEEDFKVIRDGLKLLELDYLGGSGSRGYGKVAFEKLKATTVFGNYDVKTLNELLTAEV
B2: the “stoichiometry N” value was found to be 3.
